Molecular target: T1, MBP-tagged EIN3 purified from E. coli (Arabidopsis, UniProt O24606 1-628)
T1 construct: also called ETHYLENE … 3; source: E. coli, purified
T1 sequence (looked up): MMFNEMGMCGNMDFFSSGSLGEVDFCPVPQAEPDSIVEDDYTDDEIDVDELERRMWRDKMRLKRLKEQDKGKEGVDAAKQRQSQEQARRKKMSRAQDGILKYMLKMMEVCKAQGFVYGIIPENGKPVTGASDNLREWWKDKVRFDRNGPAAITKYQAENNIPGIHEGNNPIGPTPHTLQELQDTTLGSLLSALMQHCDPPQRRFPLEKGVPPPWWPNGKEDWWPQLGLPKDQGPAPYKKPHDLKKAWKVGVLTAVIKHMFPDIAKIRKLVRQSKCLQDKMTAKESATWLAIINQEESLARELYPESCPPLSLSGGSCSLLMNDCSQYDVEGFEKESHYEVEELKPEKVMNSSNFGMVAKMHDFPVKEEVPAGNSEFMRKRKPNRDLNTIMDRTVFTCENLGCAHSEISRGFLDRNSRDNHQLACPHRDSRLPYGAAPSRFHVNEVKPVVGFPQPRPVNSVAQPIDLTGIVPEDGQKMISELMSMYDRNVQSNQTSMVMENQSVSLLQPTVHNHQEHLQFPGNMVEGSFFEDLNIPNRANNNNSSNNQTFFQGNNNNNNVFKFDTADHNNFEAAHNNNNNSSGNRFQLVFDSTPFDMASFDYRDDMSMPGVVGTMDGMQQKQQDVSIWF
Test: pull-down; in vitro GST pull-down; GST-tagged ENAP1 and MBP-tagged EIN3 purified from E. coli
Conditions: both partners purified

binding result: binds
B1: GST-ENAP1, full length, purified from E. coli (natural protein, Arabidopsis, UniProt Q8VZI9 1-249, looked up)
chain: METTPETQSKTHRLPAGREDWWSEDATATLIEAWGDRYVNLNRGNLRQNDWKEVADAVNSSHGNGRPKTDVQCKNRIDTLKKKYKTEKAKPLSNWCFFDRLDFLIGPVMKKSSGAVVKSALMNPNLNPTGSKSTGSSLDDDDDDDDDDEEDDDDAGDWGFVVRKHRKVEDVDSSEGSAFRELARSILKLGEAFERIEGKKQQMMIELEKQRMEVAKELELQRMNMLMEMQLELEKSKLGKRRAASGKKL
notes: ENAP1, encoded by at3g11100, Arabidopsis, full length; The methods of the pull-down name the fusion protein 'GST-CD3'; also called GST-labelled ENAP1; GST-tagged ENAP1; source: E. coli, purified (glutathione Sepharose 4B)

From PMC5063967, “EIN2-dependent regulation of acetylation of histone H3K14 and non-canonical histone H3K23 in ethylene signalling” (Nature Communications, 2016)
